B1: Ac-AP: A. caninum factor Xa inhibitor anticoagulant, SEQ ID NO: 54; * marks the single dog with positive immune response (protein, listed as Ancylostoma caninum)
chain: KAYPECGENEWLDDCGTQKPCEAKCNEEPPEEEDPICRSRGCLLPPACVCKDGFYRDTVIGDCVREEECDQHEIIHV
B2: Na-ASP-1: Necator americanus secreted protein antigen, SEQ ID NO: 2; Pichia-expressed recombinant (protein, listed as Necator americanus)
chain: MFSPVVVSVVFTIAFCNASPARDSFGCSNSGITDSDRQAFLDFHNNARRRVAKGLEDSNSGKLNPAKNMYKLSWDCAMEQQLQDAIQSCPSGFAGIQGVAQNTMSWSSSGGYPDPSVKIEPTLSGWWSGAKKNGVGPDNKYTGGGLFAFSNMVYSETTKLGCAYKVCGTKLAVSCIYNGVGYITNQPMWETGQACQTGADCSTYKNSGCEDGLCTKGPDVPETNQQCPSNTGMTDSVRDTFLSVHNEFRSSVARGLEPDALGGNAPKAAKMLKMVYDCEVEASAIRHGNKCVYQHSHGEDRPGLGENIYKTSVLKFDKNKAAKQASQLWWNELKEYGVGPSNVLTTALWNRPNMQIGHYTQMAWDTTYKLGCAVVFCNDFTFGVCQYGPGGNYMGHVIYTMGQPCSQCSPGATCSVTEGLCSAP

Tests used:
A. caninum = assay: Canine vaccine trial with Ac-TMP, Ac-AP, Ac-APR-1, oral challenge with 400 A. caninum L3; assay type: in vivo, dog
Source text: Study dogs and animal husbandry: Following protocol approval by The George Washington University Institutional Animal Care and Use Committee (IACUC), purpose bred, parasite naïve, male beagles 8±1 week of age were purchased, identified by ear tattoo, and maintained in the AALAC (Association for Assessment and Accreditation of Laboratory Animal Care) accredited George Washington University Animal Research Facility. The dogs were housed in a room dedicated for the study, at a room temperature of 70±4° F., with 10-15 air changes per hour comprised of 100 percent fresh air, and 12 hr light cycles alternating with 12 hr dark cycles. The airflow and timer functions were monitored daily. The dogs were fed on a diet of Teklad Certified Dog Chow #8727, supplemented with a canned soft diet in the event of anorexia. The drinking water was piped from a filter plant and delivered via automatc water system; water analysis was performed by the U.S. Army Corps of Engineers. Water from the facilities automatic system is cultured for bacteria and fungi annually. The pens were flushed daily and sanitized every two weeks. Dogs within a given study group were permitted to live together and socialize prior to the hookworm larval challenge, but were caged individually post-infection. All dogs were quarantined for approximately one week before beginning the vaccine trial. Prior to vaccination a complete blood count (CBC), serum chemistries, and a pre-vaccination serum sample were obtained.
Vaccine study design and sample size: The vaccine trial was designed to test three different antigens, each formulated with alum, as well as an alum adjuvant control. A total of 24 dogs were randomly assigned into four groups comprised of 6 dogs each. The canine sample size was selected on the ability to detect a 40-50 percent reduction in the numbers of adult hookworms in the small intestines of the vaccinated group relative to control dogs, at a statistical power of 80 percent (alpha=0.05, two-tailed). The data were derived from the mean and standard deviation of adult hookworms previously recovered from age-matched dogs infected with 400 A. caninum L3 (Hotez et al, 2002).
Recombinant Antigens: Each group of 6 dogs was vaccinated with recombinant hookworm proteins expressed as fusion proteins either in Escherichia coli or in an insect cell line with baculovirus. Ac-AP (Cappello et al, 1995; 1996) and Ac-TMP, were expressed in E. coli as pET 28 (Novagen) fusion proteins containing a polyhistidine tag (Cappello et al, 1996). Ac-APR-1 (Harrop et al, 1996) was expressed in a baculovirus pBacPAK6 vector (Clontech), modified to contain a polyhistidine-encoding sequence and additional restriction enzyme sites (Brindley et al, 2001). Recombinant Ac-AP and Ac-TMP fusion proteins were then purified by nickel affinity chromatography, followed by a second step of purification. In the case of Ac-AP (Cappello et al, 1995; 1996), the recombinant protein was purified by mono-S (Amersham-Pharmacia) ion exchange chromatography, while Ac-TMP (Zhan et al, 2002) was purified by superdex 75 (Amersham-Pharmacia) gel filtration chromatography. Ac-APR-1 (Harrop et al, 1996) was purified by substrate affinity chromatography using pepstatin agarose (Brindley et al, 2001). The antigen stock protein concentration was determined by Pierce Micro BCA assay (Pierce Chemicals) or by the absorbance of the sample at […] using an extinction coefficient that was calculated from the deduced amino acid composition of the fusion protein. The amount of alum adsorbed protein in each dose of antigen was measured by the Pierce Micro BCA assay using a bovine serum albumin standard. The relative purity of each of the antigens relative to contaminating E. coli or insect cell proteins was determined by analysis on sodium dodecyl sulfate polyacrylamide gel electrophoresis (SDS-PAGE). […]

[1] = system: antigen-specific canine IgG1 antibodies; assay: ELISA of antigen-specific canine IgG1, trial with Ac-TMP, Ac-AP, Ac-APR-1; assay type: in vivo, dog; settings: five of the six vaccinated dogs
Procedure: Canine Immunizations: A four-dose immunization schedule was selected (Table II). Each of the dogs was vaccinated by subcutaneous immunization at two sites in the shoulder, through a 22 gauge needle. The volume of the injections ranged between 0.5 and 1.0 ml. Four doses of each antigen were administered over a 38-day period. The first two injections (primary immunization) were administered on days 1 and 4, and the final two immunizations (boosts) were administered on days 34 and 38. Dogs in the control group were injected with an equivalent amount of alum.
Canine antibody measurements: Blood was collected weekly by venipuncture and the serum was separated and stored frozen at −20° C. Antigen-specific canine IgG1 antibodies were measured by indirect enzyme-linked immunosorbent assay (ELISA). Other IgG subclasses were not measured due to the unavailability of suitable high-quality canine-specific reagents. The optimal concentrations of sample sera and enzyme-linked detection antibody were determined by checkerboard titrations. Optimal antigen concentrations were determined by using a saturation technique. […] The plates were incubated in the dark for 30 minutes and read at a wavelength of 405 nm on a SpectraMax 240 PC reader (Molecular Devices, Sunnyvale, Calif.) with SOFTmax Pro software (Molecular Devices, Sunnyvale, Calif.). […]

CD-4+lymphocytes = assay: Intracellular cytokine staining of antigen-stimulated CD4+ lymphocytes of hookworm-infected residents; assay type: cell-based, human; settings: CD4+ lymphocytes from whole blood of hookworm infected residents
Procedure: The underlying immunological mechanisms accounting for this observation has been investigated. Shown in FIGS. 40 and 41, CD-4+lymphocytes were gated from the whole blood of hookworm infected residents and stimulated with either L3 soluble hookworm antigen FIG. 40) or Pichia-expressed recombinant Na-ASP-1 (FIG. 41). Host cytokine production was measured by an intracellular cytokine staining technique. […] IL-10 is a strong immunomodulator with downregulatory, anti-inflammatory properties, and IL-4 is associated with antibody production and TH-2 type immunity.

[2] = single dog with positive immune response

Row | Molecule | % Decrease of adult hookworms in the small intestines relative to alum-injected dogs (A. caninum; group) [%] | % Increase of adult hookworms in the colons relative to alum-injected dogs (A. caninum; group) [%] | adult A. caninum hookworms in the colons, Median (A. caninum; group median, alum control 4) | adult hookworms in the small intestines, Median (A. caninum; group median, alum control 180) | small intestine to colon hookworm burden ratio (A. caninum; single dog with anti-Ac-AP antibody response) | % Decrease of adult hookworms in the small intestine relative to alum-injected dogs (A. caninum; [2]) [%] | % Increase of adult hookworms in the colon relative to alum-injected dogs (A. caninum; [2]) [%] | adult A. caninum hookworms in the colon, Mean (A. caninum; [2]) | adult A. caninum hookworms in the colon, Median (A. caninum; [2]) | adult hookworms in the small intestine, Mean (A. caninum; [2]) | adult hookworms in the small intestine, Median (A. caninum; [2]) | immunological response to the antigen [1] | host cytokine production (CD-4+lymphocytes)
1 | B1 | 4.5 | 183 | 14 | 170 | 1.6 | 34.7 | 1083 | 71 | 71 | 115 | 115 | failed to respond immunologically | –
2 | B2 | – | – | – | – | – | – | – | – | – | – | – | – | high levels of IL-10 and IL-5, but not IL-4
